# Measurements from patent US5684146.
# B1: monoclonal antibody C179 (antibody, V domains shown)
# VH: EVKLVESGGGLVQPGGSLRLSCGTSGFTLTDDYMTWVRQPPGKALEWLGFIRDRANGYTTEYSASVKGRFTISRDNSQSIVYLQMNTLRVEDSATYYCARPKGYFPYAMDYWGQGT
# VL: DIQMTQSPASQSASLGESVTITCLASQTIGTWLAWYQQKPGKSPQLLIYAATSLADGVPSRFSGSGSGTKFSFKISSLQAEDFVSYYCQQLYSTPWTF
# Tests used:
# [1] = target: haemagglutinin (HA) of human influenza A type virus strain A/PR/8/34 (H1N1 subtype) (human influenza A type virus, H1N1 subtype, strain A/PR/8/34) (UniProt P03452)
# [2] = target: haemagglutinin (HA) of human influenza A type virus strain A2/Aichi/2/68 (H3N2 subtype) (human influenza A type virus, H3N2 subtype, strain A2/Aichi/2/68) (UniProt P03437)
# [3] = target: haemagglutinin (HA) of human influenza A type virus strain A/Okuda/57 (H2N2 subtype) (human influenza A type virus, H2N2 subtype, strain A/Okuda/57)
# [4] = target: haemagglutinin (HA) of human influenza A type virus strain A/Ibaraki/1/90 (H3N2 subtype) (human influenza A type virus, H3N2 subtype, strain A/Ibaraki/1/90)
# [5] = target: haemagglutinin (HA) of human influenza A type virus strain A/Izumi/5/65 (H2N2 subtype) (human influenza A type virus, H2N2 subtype, strain A/Izumi/5/65)
# [6] = target: haemagglutinin (HA) of human influenza A type virus strain A/Adachi/2/57 (H2N2 subtype) (human influenza A type virus, H2N2 subtype, strain A/Adachi/2/57)
# [7] = target: haemagglutinin (HA) of human influenza A type virus strain A/Kumamoto/1/65 (H2N2 subtype) (human influenza A type virus, H2N2 subtype, strain A/Kumamoto/1/65)
# [8] = target: haemagglutinin (HA) of human influenza A type virus strain A/Suita/1/89 (H1N1 subtype) (human influenza A type virus, H1N1 subtype, strain A/Suita/1/89)
# [9] = target: haemagglutinin (HA) of human influenza A type virus strain A/PR/8/34 (H1N1 subtype) (human influenza A type virus, H1N1 subtype, strain A/PR/8/34) (UniProt P03452); remark: listed apart in the source
# [10] = target: haemagglutinin (HA) of human influenza A type virus strain A1/FM/1/47 (H1N1 subtype) (human influenza A type virus, H1N1 subtype, strain A1/FM/1/47)
# [11] = target: haemagglutinin (HA) of human influenza A type virus strain A/Kaizuka/2/65 (H2N2 subtype) (human influenza A type virus, H2N2 subtype, strain A/Kaizuka/2/65)
# [12] = target: haemagglutinin (HA) of human influenza A type virus strain A/Suita/1/90 (H3N2 subtype) (human influenza A type virus, H3N2 subtype, strain A/Suita/1/90)
# [13] = target: haemagglutinin (HA) of human influenza A type virus strain A/Kitakyushu/159/93 (H3N2 subtype) (human influenza A type virus, H3N2 subtype, strain A/Kitakyushu/159/93)
# [14] = target: haemagglutinin (HA) of human influenza A type virus strain A/Yamagata/120/86 (H1N1 subtype) (human influenza A type virus, H1N1 subtype, strain A/Yamagata/120/86)
# [15] = target: haemagglutinin (HA) of human influenza A type virus strain A/Sichuan/2/87 (H3N2 subtype) (human influenza A type virus, H3N2 subtype, strain A/Sichuan/2/87)
# [16] = target: haemagglutinin (HA) of human influenza A type virus strain A/Bangkok/10/83 (H1N1 subtype) (human influenza A type virus, H1N1 subtype, strain A/Bangkok/10/83)
# [17] = target: influenza B type virus strain B/Nagasaki/1/87 (influenza B type virus, strain B/Nagasaki/1/87)
# [18] = target: haemagglutinin (HA) of human influenza A type virus strain A/Fukuoka/C29/85 (H3N2 subtype) (human influenza A type virus, H3N2 subtype, strain A/Fukuoka/C29/85)
# [19] = target: haemagglutinin (HA) of human influenza A type virus strain A/Osaka/930/88 (H1N1 subtype) (human influenza A type virus, H1N1 subtype, strain A/Osaka/930/88)
# [20] = target: haemagglutinin (HA) of human influenza A type virus strain A2/Aichi/2/68 (H3N2 subtype) (human influenza A type virus, H3N2 subtype, strain A2/Aichi/2/68) (UniProt P03437); remark: listed apart in the source
# [21] = target: haemagglutinin (HA) of human influenza A type virus strain A/Okuda/57 (H2N2 subtype) (human influenza A type virus, H2N2 subtype, strain A/Okuda/57); remark: listed apart in the source
molecule,measurement,setting,value
fused polypeptide of scFv of C179 with two Fc binding domain-like structures of protein A,Absorbance at 492 nm (absorbance at 492 nm),[1],0.15
same,Absorbance at 492 nm (absorbance at 492 nm),[2],0.074
same,Absorbance at 492 nm (absorbance at 492 nm),[3],0.303
B1,"HI activity (haemagglutination inhibition, antibody titer) (dilution ratio of the ascites fluid)",[4],< 32
same,"Neutralization activity (focus reduction neutralization test, antibody titer)",[4],< 16
same,Staining activity (antibody titer),[4],< 100
same,"HI activity (haemagglutination inhibition, antibody titer) (dilution ratio of the ascites fluid)",[5],< 32
same,"Neutralization activity (focus reduction neutralization test, antibody titer)",[5],1024
same,Staining activity (antibody titer),[5],410000
same,"HI activity (haemagglutination inhibition, antibody titer) (dilution ratio of the ascites fluid)",[6],< 32
same,"Neutralization activity (focus reduction neutralization test, antibody titer)",[6],1024
same,Staining activity (antibody titer),[6],1.64e+06
same,"HI activity (haemagglutination inhibition, antibody titer) (dilution ratio of the ascites fluid)",[7],< 32
same,"Neutralization activity (focus reduction neutralization test, antibody titer)",[7],1024
same,Staining activity (antibody titer),[7],410000
same,"HI activity (haemagglutination inhibition, antibody titer) (dilution ratio of the ascites fluid)",[8],< 32
same,"Neutralization activity (focus reduction neutralization test, antibody titer)",[8],1024
same,Staining activity (antibody titer),[8],410000
same,"HI activity (haemagglutination inhibition, antibody titer) (dilution ratio of the ascites fluid)",[9],< 32
same,"Neutralization activity (focus reduction neutralization test, antibody titer)",[9],512
same,"HI activity (haemagglutination inhibition, antibody titer) (dilution ratio of the ascites fluid)",[10],< 32
same,"Neutralization activity (focus reduction neutralization test, antibody titer)",[10],512
same,Staining activity (antibody titer),[10],410000
same,"HI activity (haemagglutination inhibition, antibody titer) (dilution ratio of the ascites fluid)",[11],< 32
same,"Neutralization activity (focus reduction neutralization test, antibody titer)",[11],2048
same,Staining activity (antibody titer),[11],410000
same,"HI activity (haemagglutination inhibition, antibody titer) (dilution ratio of the ascites fluid)",[12],< 32
same,"Neutralization activity (focus reduction neutralization test, antibody titer)",[12],< 16
same,Staining activity (antibody titer),[12],< 100
same,"HI activity (haemagglutination inhibition, antibody titer) (dilution ratio of the ascites fluid)",[13],< 32
same,"Neutralization activity (focus reduction neutralization test, antibody titer)",[13],< 16
same,Staining activity (antibody titer),[13],< 100
same,"HI activity (haemagglutination inhibition, antibody titer) (dilution ratio of the ascites fluid)",[14],< 32
same,"Neutralization activity (focus reduction neutralization test, antibody titer)",[14],1024
same,Staining activity (antibody titer),[14],410000
same,"HI activity (haemagglutination inhibition, antibody titer) (dilution ratio of the ascites fluid)",[15],< 32
same,"Neutralization activity (focus reduction neutralization test, antibody titer)",[15],< 16
same,Staining activity (antibody titer),[15],< 100
same,"HI activity (haemagglutination inhibition, antibody titer) (dilution ratio of the ascites fluid)",[16],< 32
same,"Neutralization activity (focus reduction neutralization test, antibody titer)",[16],512
same,Staining activity (antibody titer),[16],1.64e+06
same,"HI activity (haemagglutination inhibition, antibody titer) (dilution ratio of the ascites fluid)",[17],< 32
same,"Neutralization activity (focus reduction neutralization test, antibody titer)",[17],< 16
same,Staining activity (antibody titer),[17],< 100
same,"HI activity (haemagglutination inhibition, antibody titer) (dilution ratio of the ascites fluid)",[18],< 32
same,"Neutralization activity (focus reduction neutralization test, antibody titer)",[18],< 16
same,Staining activity (antibody titer),[18],< 100
same,"HI activity (haemagglutination inhibition, antibody titer) (dilution ratio of the ascites fluid)",[19],< 32
same,"Neutralization activity (focus reduction neutralization test, antibody titer)",[19],512
same,Staining activity (antibody titer),[19],410000
same,"HI activity (haemagglutination inhibition, antibody titer) (dilution ratio of the ascites fluid)",[20],< 32
same,"Neutralization activity (focus reduction neutralization test, antibody titer)",[20],< 16
same,"HI activity (haemagglutination inhibition, antibody titer) (dilution ratio of the ascites fluid)",[21],< 32
same,"Neutralization activity (focus reduction neutralization test, antibody titer)",[21],1024
same,Staining activity (antibody titer),[21],1.64e+06
